These results are taken from paper PMC10132971.

Series [1] has as its target Smc5/6 octamer (WT, with Nse5/6) (Saccharomyces cerevisiae (W303)) (UniProt Q08204+Q12749+Q07913+P38632+Q05541+P43124+Q03718+P40026). The series can be described thus: single-molecule fluorescence. The following applies: 1 M NaCl wash after 1 h incubation; nonlooping complexes, n=481; both ends tethered to surface; Mass photometry: 40 mM Tris-HCl pH 7.5, 100 mM K-glutamate, 7.5 mM MgCl2, 30 C, 10 nM protein, 5 nM DNA; single-molecule: 2 nM Smc5/6, imaging buffer with ….

Series [2] deals with Smc5/6 hexamer (lacking Nse5/6) (Saccharomyces cerevisiae (W303)) (UniProt Q08204+Q12749+Q07913+P38632+Q05541+P43124). The series is described as follows: single-molecule fluorescence. The conditions noted are these: 1 M NaCl wash; both ends tethered to surface; Mass photometry: 40 mM Tris-HCl pH 7.5, 100 mM K-glutamate, 7.5 mM MgCl2, 30 C, 10 nM protein, 5 nM DNA; single-molecule: 2 nM Smc5/6, imaging buffer with ….

For series [3], the target named is Smc5/6 octameric complex with Nse2-6xHis-SNAP labelled with Alexa 647 (S. cerevisiae) (UniProt Q08204). The series is described as follows: single-molecule fluorescence, counting of photobleaching steps; Alexa 647-labelled complex (2 nM unless stated otherwise) on surface-tethered lambda-DNA; 40 mM Tris-HCl pH 7.5, 100 mM NaCl, 7.5 mM MgCl2, 2 mM ATP, 30 °C; loop-extruding complexes.

Series [4] concerns the target Smc5/6 hexameric complex lacking Nse5/6 (S. cerevisiae) (UniProt Q08204). The series is described as follows: mass photometry; 10 nM complex with 5 nM 200 bp linear double-stranded DNA, no ATP; 40 mM Tris-HCl pH 7.5, 100 mM potassium glutamate, 7.5 mM MgCl2, 30 °C for 10 min; monomer to dimer of complexes. The conditions noted are these: remark: other sources report otherwise.

Series [5] has the same target.
The target is the same in series [6]. The series is described as follows: mass photometry; 10 nM hexamer with 10 nM purified Nse5/6 (1:1) and 5 nM 200 bp DNA, no ATP; 40 mM Tris-HCl pH 7.5, 100 mM potassium glutamate, 7.5 mM MgCl2, 30 °C for 10 min. The following applies: remark: other sources report otherwise.
Series [7] has as its target Smc5/6 octameric complex with Nse4-6xHis-SNAP labelled with Alexa 647 (S. cerevisiae) (UniProt Q08204). The series can be described thus: single-molecule fluorescence, counting of photobleaching steps; Alexa 647-labelled complex (2 nM unless stated otherwise) on surface-tethered lambda-DNA; 40 mM Tris-HCl pH 7.5, 100 mM NaCl, 7.5 mM MgCl2, 2 mM ATP, 30 °C; loop-extruding complexes.

The target of series [8] is Smc5/6 hexameric complex lacking Nse5/6 with Nse4-6xHis-SNAP labelled with Alexa 647 (S. cerevisiae) (UniProt Q08204). Described as above. The following applies: remark: other sources report otherwise.

For lambda DNA, 48.5 kbp (48,502 bp), the binding signal (% remaining bound after high-salt wash) in series [1] is 7; in series [2], 0.
The stoichiometry N is a count of units in the complex or per binding partner. Consider “Smc5/6 octameric complex with Nse2-6xHis-SNAP labelled with Alexa 647 (from UniProt Q08204 1-1093; Q12749 1-1114; Q07913 1-336; P38632 1-267; Q05541 1-303; P43124 1-402; Q03718 1-556)”, for which the stoichiometry N in series [3] is 2.
For the substance “Smc5/6 hexameric complex lacking Nse5/6, Q08204 1-1093; Q12749 1-1114; Q07913 1-336; P38632 1-267; Q05541 1-303; P43124 1-402”, in series [4], the dimers, percent of normalized population was found to be 40% and the dimers, percent of total counts came out at 25%. Moreover, the looping probability of DNA with the hexamer compared with the WT octamer in series [5] turned out to be 15 fold. The substance also yielded a dimers, percent of total counts, with Nse5/6 added 1:1 in series [6] of 3%.
In series [7], “Smc5/6 octameric complex with Nse4-6xHis-SNAP labelled with Alexa 647 (from UniProt Q08204 1-1093; Q12749 1-1114; Q07913 1-336; P38632 1-267; Q05541 1-303; P43124 1-402; Q03718 1-556)” came in with a dimer fraction of 100% and a stoichiometry N of 2.
In series [8], “Smc5/6 hexameric complex lacking Nse5/6 with Nse4-6xHis-SNAP labelled with Alexa 647, Q08204 1-1093; Q12749 1-1114; Q07913 1-336; P38632 1-267; Q05541 1-303; P43124 1-402” came in with a stoichiometry N of 2.
